Reference: the DeepSol protein solubility set

experiment: soluble on expression in E. coli; label from the status in PepcDB or PDB records

Soluble on expression in E. coli, not soluble:
MGSDKIHHHHHHASEPVSVASTPETDEIDQLFDDMQLDGIVSYTAFRQAVTGYQKIEQKSKSIMTLIDFSKPSTEKRLYVLDMKNKKLLYTSVVSHGKNSGGNYATSFSNKNGSYKSSLGFYLTENTYQGRNGYSLVLNGLEKGINDQAKQRAIVMHGAAYANPNITASAGRLGRSLGCPALPQALAKPIIDTIKKGSVLFIYANNKDYLANSTFLSPRQTEYLSWAQPAN
MGSDKIHHHHHHATRSGKTPVSVELEIGGLPGDESVDDAIDPDLENPNTSFDLLFIPKEFTFETQAISGDLTAVPIRPSEGNTHTMRHFGMGDVRGALTGWHVTAEIPHMRNEAHSLLGIITFQLTGSYARYDKTLRRFFMTNTMYGLDFSEDPAAPDFPTNPIIIGNGATLMSNAGDRKGQGMWSGRMTDISLAIQTPVSQLFPGAYTGSIIWNLISGPV
MGSDKIHHHHHHAVSETISETAWCLDGFERPTGVNPVIKPLPTKFYCPMREDSVAWEESDTFNPAATIYDGKIVVMYRAEDNSAQGIGSRTSRLGYATSTDGIHFERDTKPAFYPAKDNQAENECPGGTEDPRIAMTEDGTYVLLYTQWNRKVPRLAVATSKDLKHWTKFGPAFEKAYNGKFKDEATKSASLVTTLKGDKQVIAKVNGKYFMYWGEKNVYAATSDNLIDWDPLLDENGELLKLFSPRSGYFDSQLTECGPPAILTKDGIVLLYNGKNEPGEKGDTAYPANSYCAGQALFDVNNPTKLIGRLDKPFLQPTDDFEKSGQYPAGTVFVEGLVYYRNKWYLYYGCADSFVAVAVSDKQLNF
MGSDKIHHHHHHCDSGSDAVSYGVGTLSLGLSANPSFSTKTRSVNEAEYKKADNYQVTVKDADGASLYNGLYKDMPLSIDLTAGKGYTVKAFYGENVNAGFDKLYVEGSQEFTVSEGEQKNVILYCKPANVKVSVVYTEDFLKYYSDCTVSLSTSHLTAPFEVNMKKDSGKDAYLKANADGEKVSITVGGFRDKEGNEVVMEALVAEKKVAPKTHLTITVDPEVITISTGTASLDVTVDTGTEDKDVNIEIPEEYWPGNASK
MGSDKIHHHHHHCQNAAATDTNQSVSAKLQQQALSSSLAYDIVESLTVEVGPRLAGSDKDLVAVEWAEKKLGSLGFDKVYKEAVQVPVWQRGEAKANIVSPYAQPLVITALGGSVGTPEEGISAPIVRFETLDELKQADPSLVAGKIVFIDHITPRFKTGKGYGMTVGGRSRGAIAAAEKGALAIVIRSIGTDHDRMAHTGMMRYQEGVDKIPAAAMSNPDADLVTLMLKRDPNVVLHLEMSPKNLGYATSYNVIAEVTGSSKPDEIVLIGAHLDSWDEGTGAIDDGAGVAIVTAAGHYISQLRVKPARTVRVVLYAAEELGLIGGKSYAKDHQAELAQHYIAAESD
MGSDKIHHHHHHDAVRTYYAKAISANEKTNSVCMFVKEAEKWAMDWDEKAKDPQFQKPPLFGLPMSLKECVPLEGYDQTRGFVQDTFRPTETDGVLVQQLKKLGAIPYVQTNVPQSLLSYNCSNPVYGTTNHPMDKTRTSGGSSGGESALISADGSLLGIGGDVGGSIRIPCAYTGTTGIKPSHLRFSHRGVCGSVPGRPLINSNDGPMSTRVETNVDFLRTVWADTWITEQDPYVPPVTWNEEAYKSDKKLKIGYYVDDGWFTPTPVCQRAVMEAKQILEDSGHTLVPFRPPRVPEVLRMFLRAVCVDAGTFLSKKLMNDIIDPLLYTQVVLWMVPVPIQRFLSSIIKVFFPRLGNLMDAMTLSTVELRNTYADIEAYRSEMAGLMVDQKIDALLCPVTVSPALPHVSPSKLFAGTSYTGIFNLLDYAAGSVNVTHVTKQDELDLEDYEESDPWYALAKKGSRGTIGFPIGVQVATPPYKEETCLRIMREIERGVTGK
MGSDKIHHHHHHDEEPSDKGSTSPQEPVYTTFTDAGEVVVPGVLPANFTPRSVRVKGDTLFVANTNAADRSVLLLNLTTGELIGRIDSWVRKGVKETFNAEIGDMAVSDRYIFVGMYNSRINIFDRRTLQFVNAIGRSDGKWGDDIYSMTHCYGLRECGERLMVRDKNTIRGYWIYEAVTEPAFRVPWIGKVKVPEGVGYDYQARIHGMAEYDGRMYLTDWYNKSVQVFTPSKMEIVFGEETHITSDAVFKYDDIQPLGLLAYGGELLMSVQKSGKIQRYDPETGDLLGVLAEFPGKEIGRMEIARGMLYYIDLKAGKLMKAKGE
